The target of the assay is T1, VacA, the vacuolating cytotoxin of Helicobacter pylori (Helicobacter pylori ATCC49503, UniProt Q48245 34-854).
T1 sequence: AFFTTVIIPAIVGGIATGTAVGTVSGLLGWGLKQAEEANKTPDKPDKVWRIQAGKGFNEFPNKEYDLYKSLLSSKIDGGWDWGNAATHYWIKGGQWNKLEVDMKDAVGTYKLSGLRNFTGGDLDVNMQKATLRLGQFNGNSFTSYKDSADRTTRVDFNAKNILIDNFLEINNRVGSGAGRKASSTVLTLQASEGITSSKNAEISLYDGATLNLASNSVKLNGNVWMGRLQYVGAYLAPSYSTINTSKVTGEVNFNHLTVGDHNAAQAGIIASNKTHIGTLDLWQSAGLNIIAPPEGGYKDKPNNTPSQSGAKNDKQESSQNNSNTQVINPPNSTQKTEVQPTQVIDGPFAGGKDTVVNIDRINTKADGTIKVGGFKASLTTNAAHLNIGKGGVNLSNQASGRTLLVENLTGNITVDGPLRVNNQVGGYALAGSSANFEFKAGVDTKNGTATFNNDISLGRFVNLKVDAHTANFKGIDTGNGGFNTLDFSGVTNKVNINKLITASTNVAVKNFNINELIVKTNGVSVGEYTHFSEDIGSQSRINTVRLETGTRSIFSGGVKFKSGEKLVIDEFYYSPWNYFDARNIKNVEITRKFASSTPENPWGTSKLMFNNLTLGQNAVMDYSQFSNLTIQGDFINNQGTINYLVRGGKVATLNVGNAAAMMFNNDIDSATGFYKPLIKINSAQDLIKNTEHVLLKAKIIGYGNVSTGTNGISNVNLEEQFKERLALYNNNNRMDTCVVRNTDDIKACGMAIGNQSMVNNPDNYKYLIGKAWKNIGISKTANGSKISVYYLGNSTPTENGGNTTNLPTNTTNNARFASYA
Nature of the assay: SPR; BIAcore X, 25°C; GST-MMRN1 amine-coupled to a CM5 chip; VacA in PBS with 1 mM Ca++ perfused at 20 μL/min; control surface subtracted. Conditions: both partners purified.

Our source for the Kd values is publication PMC3842841, “VacA, the vacuolating cytotoxin of Helicobacter pylori, binds to multimerin 1 on human platelets” (Thrombosis Journal, 2013).

B1: Glutathione S-transferase (GST)-fusion protein of multimerin 1 (291a.a. ~ 391a.a.) (domain or fragment)
chain: IHTNQAESHTAVGRGVAEQQQQQGCGDPEVMQKMTDQVNYQAMKLTLLQKKIDNISLTVNDVRNTYSSLEGKVSEDKSREFQSLLKGLKSKSINVLIRDIV
notes: multimerin 1 (MMRN1), residues 291-391; also called GST-MMRN1; GST-fusion protein of partial MMRN1 (291aa-391aa); source: bought: Abnova Corporation
In turn, B1 yielded a Kd of 33 nM. This counts as double-digit nanomolar.

In general, Kd refers to the free concentration of one partner at which half of the binding sites on the other are occupied at equilibrium, for simple one-to-one binding. Read a low Kd as tighter binding.
